Literature values as cited in article PMC12703448.

Target: PDE6D (Homo sapiens) (UniProt O43924)
Sequence (O43924 whole entry): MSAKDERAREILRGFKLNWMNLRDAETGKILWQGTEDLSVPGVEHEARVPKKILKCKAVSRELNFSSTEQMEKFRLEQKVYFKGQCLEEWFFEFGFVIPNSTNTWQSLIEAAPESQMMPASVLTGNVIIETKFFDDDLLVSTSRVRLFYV

INPP5E, sequence (Q9NRR6 1-641): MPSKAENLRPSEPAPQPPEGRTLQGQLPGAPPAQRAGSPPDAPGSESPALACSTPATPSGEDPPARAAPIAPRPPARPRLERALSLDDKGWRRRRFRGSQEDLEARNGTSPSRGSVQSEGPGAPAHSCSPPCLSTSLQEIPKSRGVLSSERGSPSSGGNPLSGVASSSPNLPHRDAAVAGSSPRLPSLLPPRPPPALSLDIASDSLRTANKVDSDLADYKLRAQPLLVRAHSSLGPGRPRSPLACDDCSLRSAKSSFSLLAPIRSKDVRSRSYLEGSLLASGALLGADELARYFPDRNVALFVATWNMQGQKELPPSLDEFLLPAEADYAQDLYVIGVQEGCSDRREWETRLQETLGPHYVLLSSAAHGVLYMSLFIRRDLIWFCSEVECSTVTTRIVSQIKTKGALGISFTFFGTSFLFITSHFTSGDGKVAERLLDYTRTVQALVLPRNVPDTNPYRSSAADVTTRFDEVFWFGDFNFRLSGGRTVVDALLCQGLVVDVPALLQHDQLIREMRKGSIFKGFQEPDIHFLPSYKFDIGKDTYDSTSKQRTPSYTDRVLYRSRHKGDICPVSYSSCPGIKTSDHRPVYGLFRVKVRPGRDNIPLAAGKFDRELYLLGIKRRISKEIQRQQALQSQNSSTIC

Kd: 4 nM
Substance: INPP5E (from UniProt Q9NRR6)
